Assay results: article PMC5458344

Legend:
[1] = target: GST-lamin A (amino acids 356–665, containing nesprin-1/2 binding domain) (UniProt P02545); assay: reverse GST pull-down with western blot densitometry; settings: lysates of U2OS cells transfected with GFP-nesprin-1α2 WT or mutant; three independent experiments, mean ± SEM; parent: est. 1.0; read off a plot
[2] = target: GST-emerin (amino acids 1–176, lacking the TM domain) (UniProt P50402); assay: as above; settings: lysates of U2OS cells transfected with GFP-nesprin-1α2 WT or mutant; three independent experiments, mean ± SEM; parent: est. 1.0; read off a plot
emerin (endogenous) = emerin (endogenous) (UniProt P50402); assay: GST pull-down with western blot densitometry; settings: U2OS cell lysate; three independent experiments, mean ± SEM; parent: est. 1.0; read off a plot
[3] = target: lamin A/C (endogenous, U2OS lysate; lamin A and lamin C bands quantified together); assay: GST pull-down with western blot densitometry; settings: U2OS cell lysate; three independent experiments, mean ± SEM; parent: est. 1.0; read off a plot
Myc-SUN2 (full length) = Myc-SUN2 (full length) (UniProt Q9UH99); assay: GST pull-down with western blot densitometry; settings: lysate of U2OS cells transfected with Myc-SUN2 (full length); three independent experiments, mean ± SEM; parent: est. 1.0; read off a plot
UniProt Q9UH99, sequence (Q9UH99 whole entry): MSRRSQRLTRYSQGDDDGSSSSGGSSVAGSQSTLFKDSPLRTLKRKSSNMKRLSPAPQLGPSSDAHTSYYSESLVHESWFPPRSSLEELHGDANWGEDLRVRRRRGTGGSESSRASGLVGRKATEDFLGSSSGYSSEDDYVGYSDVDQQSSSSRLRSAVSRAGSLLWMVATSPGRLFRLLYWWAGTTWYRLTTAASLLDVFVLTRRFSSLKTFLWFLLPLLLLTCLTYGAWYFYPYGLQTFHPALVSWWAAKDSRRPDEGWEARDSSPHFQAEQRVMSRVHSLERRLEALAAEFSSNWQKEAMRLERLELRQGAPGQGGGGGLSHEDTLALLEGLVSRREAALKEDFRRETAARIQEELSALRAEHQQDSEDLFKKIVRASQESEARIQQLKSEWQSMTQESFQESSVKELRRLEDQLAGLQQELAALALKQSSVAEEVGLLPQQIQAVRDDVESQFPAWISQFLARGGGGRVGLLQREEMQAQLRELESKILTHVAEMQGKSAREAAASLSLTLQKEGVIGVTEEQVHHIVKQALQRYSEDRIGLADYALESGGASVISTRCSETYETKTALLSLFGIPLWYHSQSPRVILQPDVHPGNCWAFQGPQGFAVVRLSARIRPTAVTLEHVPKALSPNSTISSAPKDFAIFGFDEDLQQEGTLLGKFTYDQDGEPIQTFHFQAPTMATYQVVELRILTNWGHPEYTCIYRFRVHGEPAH

UniProt P02545, sequence (P02545 356-664): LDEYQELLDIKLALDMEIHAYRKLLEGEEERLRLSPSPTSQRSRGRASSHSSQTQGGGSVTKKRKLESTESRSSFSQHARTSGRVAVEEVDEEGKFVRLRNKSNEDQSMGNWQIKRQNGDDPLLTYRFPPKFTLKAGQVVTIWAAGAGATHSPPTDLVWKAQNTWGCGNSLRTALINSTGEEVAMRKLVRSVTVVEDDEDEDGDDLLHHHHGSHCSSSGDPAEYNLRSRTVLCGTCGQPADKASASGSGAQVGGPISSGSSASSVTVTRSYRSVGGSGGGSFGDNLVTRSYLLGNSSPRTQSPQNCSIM

ratio to parent [1] | ratio to parent [2] | ratio to parent (emerin (endogenous)) | ratio to parent [3] | ratio to parent (Myc-SUN2 (full length)) | Substance
0.31 | 1.1 |  |  |  | GFP-tagged nesprin-1α2 WT N8406K
0.17 | 0.93 |  |  |  | GFP-tagged nesprin-1α2 WT S8381C
 |  | 0.87 | 0.12 | 0.19 | GST-tagged WT nesprin-1α2 SR1-6 (lacking KASH domain) S8381C
0.33 | 1.1 |  |  |  | GFP-tagged nesprin-1α2 WT R8272Q
 |  | 1 | 0.18 | 0.25 | GST-tagged WT nesprin-1α2 SR1-6 (lacking KASH domain) R8272Q
 |  | 1.2 | 0.17 | 0.15 | GST-tagged WT nesprin-1α2 SR1-6 (lacking KASH domain) N8406K
